Assay [1] addresses T1, human p75 neurotrophin receptor-GFP (human, UniProt P08138 29-427).
T1 construct: also called p75NTR; NGFR; source: HEK293F, transiently transfected, on cells; not shown: GFP, C-terminal, kept
T1 sequence (looked up): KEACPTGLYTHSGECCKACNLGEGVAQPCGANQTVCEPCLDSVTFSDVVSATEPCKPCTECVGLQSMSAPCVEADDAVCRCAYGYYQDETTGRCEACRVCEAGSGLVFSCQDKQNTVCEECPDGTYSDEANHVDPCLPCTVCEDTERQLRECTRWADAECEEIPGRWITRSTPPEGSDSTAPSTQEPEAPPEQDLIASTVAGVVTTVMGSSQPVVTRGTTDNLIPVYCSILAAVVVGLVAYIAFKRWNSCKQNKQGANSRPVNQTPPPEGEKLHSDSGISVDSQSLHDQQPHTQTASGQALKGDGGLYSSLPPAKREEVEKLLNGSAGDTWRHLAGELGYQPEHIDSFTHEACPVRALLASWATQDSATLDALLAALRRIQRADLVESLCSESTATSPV
Description: flow cytometry on cells; recombinant B7-1-Fc or B7-1N82E-Fc titrated (up to 1.2 uM) onto cells expressing CTLA-4, CD28 or p75NTR; detected with an anti-mouse 647 labelled antibody; EC50 calculated. Particulars: one partner purified.

In assay [2] the target is T2, CTLA-4 on cells (Figure S6) ( (human or mouse cDNA cloned), UniProt P16410 36-223).
T2 construct: CTLA-4; Probably a C-terminal GFP fusion in HEK293F cells as in the other experiments; also called CTLA-4 Expressing Cells; CTLA-4 cells
The description is as above. Particulars: one partner purified.

For assay [3], the target named is T3, CD28 on cells (Figure S6) ( (human or mouse cDNA cloned), UniProt P10747 19-220).
T3 construct: CD28; Probably a C-terminal GFP fusion in HEK293F cells as in the other experiments; also called CD28 Expressing Cells; CD28 cells
The description is as above. Particulars: one partner purified.

Assay [4] concerns the target T4, B7-1–hIgG1 biotin (human, UniProt P33681 35-233, biotin on the AVI tag).
T4 construct: human B7-1 (CD80) ectodomain, residues 35-233; also called recombinant biotinylated B7-1–Fc protein; B7-1–Fc biotin; source: Expi293 cells stably expressing BirA, transiently transfected, purified; not shown: Fc (human IgG1), C-terminal, kept; AVI tag, C-terminal, kept
T4 sequence (looked up): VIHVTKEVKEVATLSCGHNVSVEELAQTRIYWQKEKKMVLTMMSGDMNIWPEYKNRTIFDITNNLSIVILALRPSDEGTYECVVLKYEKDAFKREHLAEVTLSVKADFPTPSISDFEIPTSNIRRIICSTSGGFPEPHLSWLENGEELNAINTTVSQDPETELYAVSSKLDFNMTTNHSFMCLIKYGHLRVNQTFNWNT
Description: flow cytometry on protein-coated beads; p75NTR-mIgG2a or CTLA-4–mIgG2a titrated (0 to 100 nM, 30 min) onto streptavidin beads coated with B7-1–hIgG1 biotin; detected with anti-mIgG2a; PBS 0.2% BSA pH 7.4; Hill fit; dimeric fusion proteins. Particulars: both partners purified.

T2 sequence (P16410 36-223): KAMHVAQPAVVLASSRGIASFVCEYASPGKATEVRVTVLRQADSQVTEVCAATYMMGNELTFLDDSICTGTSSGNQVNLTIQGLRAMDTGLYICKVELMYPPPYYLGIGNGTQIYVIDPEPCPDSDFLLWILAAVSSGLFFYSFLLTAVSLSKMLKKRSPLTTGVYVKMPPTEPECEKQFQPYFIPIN

B1: hB7-1-mIgG2A (Fc fusion, human, UniProt P33681 35-233, looked up)
chain: VIHVTKEVKEVATLSCGHNVSVEELAQTRIYWQKEKKMVLTMMSGDMNIWPEYKNRTIFDITNNLSIVILALRPSDEGTYECVVLKYEKDAFKREHLAEVTLSVKADFPTPSISDFEIPTSNIRRIICSTSGGFPEPHLSWLENGEELNAINTTVSQDPETELYAVSSKLDFNMTTNHSFMCLIKYGHLRVNQTFNWNT
notes: B7-1 (CD80), human, ectodomain residues 35-233; also called B7-1-Fc; WT B7-1-Fc; source: Expi293, transiently expressed, purified (Ni2+ His60 resin, S200 gel filtration); not shown: Fc (mouse IgG2a), C-terminal, kept
The term EC50 denotes the midpoint of the concentration-response curve. As to B1, the EC50 is 285 nM in assay [1], 0.69 nM in assay [2] and 9.7 nM in assay [3].

B2: hB7-1N82E-mIgG2A (Fc fusion, human, UniProt P33681 35-233, looked up)
chain: VIHVTKEVKEVATLSCGHNVSVEELAQTRIYWQKEKKMVLTMMSGDMEIWPEYKNRTIFDITNNLSIVILALRPSDEGTYECVVLKYEKDAFKREHLAEVTLSVKADFPTPSISDFEIPTSNIRRIICSTSGGFPEPHLSWLENGEELNAINTTVSQDPETELYAVSSKLDFNMTTNHSFMCLIKYGHLRVNQTFNWNT
notes: B7-1 (CD80), human, ectodomain residues 35-233 with N82E; also called B7-1N82E-Fc; source: Expi293, transiently expressed, purified (Ni2+ His60 resin, S200 gel filtration); not shown: Fc (mouse IgG2a), C-terminal, kept
On to B2, for which the EC50 was 9.2 nM in assay [2] and 10.3 nM in assay [3].

B3: p75^NTR-mIgG2A (Fc fusion, UniProt P08138 29-250, looked up)
chain: KEACPTGLYTHSGECCKACNLGEGVAQPCGANQTVCEPCLDSVTFSDVVSATEPCKPCTECVGLQSMSAPCVEADDAVCRCAYGYYQDETTGRCEACRVCEAGSGLVFSCQDKQNTVCEECPDGTYSDEANHVDPCLPCTVCEDTERQLRECTRWADAECEEIPGRWITRSTPPEGSDSTAPSTQEPEAPPEQDLIASTVAGVVTTVMGSSQPVVTRGTTDN
notes: p75NTR (NGFR) full-length ectodomain; also called p75^NTR-Fc; source: Expi293 suspension cells, transiently transfected, purified; not shown: Fc (mouse IgG2a), C-terminal, kept
B3 came in with an EC50 in assay [4] of 16 nM.
